Assay results from patent US20120316071A1.

Assays:
[1] = biological target: rHuman EGF R/Fc Chimera, CF (R&D Systems Cat#344-ER) (human) (UniProt P00533); assay: Multispot ECL (MSD) titration; antigen spotted on plate; Fab […]; blank spot 149
[2] = biological target: rHuman EGF R/Fc Chimera, CF (R&D Systems Cat#344-ER) (human) (UniProt P00533); assay: Multispot ECL (MSD) titration; antigen spotted on plate; Fab 1570 nM; blank spot 866
[3] = biological target: rHuman EGF R/Fc Chimera, CF (R&D Systems Cat#344-ER) (human) (UniProt P00533); assay: Multispot ECL (MSD) titration; antigen spotted on plate; Fab 98.1 nM; blank spot 210
[4] = biological target: rHuman EGF R/Fc Chimera, CF (R&D Systems Cat#344-ER) (human) (UniProt P00533); assay: Multispot ECL (MSD) titration; antigen spotted on plate; Fab 392.5 nM; blank spot 338

- ECL signal [1]: 317
- ECL signal [2]: 2480
- ECL signal [3]: 4390
- ECL signal [4]: 744
B1: Fab VH1-46_IGHD3-10*01_IGHJ4*01 & O1_IGKJ1*01 (Fab, V domains shown)
VH: QVQLVQSGAEVKKPGASVKVSCKASGYTFTSYYMHWVRQAPGQGLEWMGIINPSGGSTSYAQKFQGRVTMTRDTSTSTVYMELSSLRSEDTAVYYCAREYYYGSGSYYNDYFDYWGQGTLVTVSS
VL: DIVMTQTPLSLPVTPGEPASISCRSSQSLLDSDDGNTYLDWYLQKPGQSPQLLIYTLSYRASGVPDRFSGSGSGTDFTLKISRVEAEDVGVYYCMQRIEFPSWTFGQGTKVEIKR
